Measurements taken from publication PMC4699842, “Synthetic prions with novel strain-specified properties” (PLoS Pathogens, 2015).

Target: the molecule itself
Test: thioflavin-T fibrillization assay

B1: recombinant mouse prion protein residues 23-231 (recMoPrP(23–231)) (natural protein)
chain: not shown
notes: also called recPrP; rec full-length mouse (Mo) PrP
  binding result: binds
